These are literature values, as cited in article PMC7496540.

Data set [1] deals with λ exonuclease (Escherichia phage lambda) (UniProt P03697).
Data set [2] deals with SSB C-terminal peptide C-terminal nine residues (Escherichia coli) (UniProt P0AGE0).
Sequence of UniProt P0AGE0 (P0AGE0 whole entry, looked up): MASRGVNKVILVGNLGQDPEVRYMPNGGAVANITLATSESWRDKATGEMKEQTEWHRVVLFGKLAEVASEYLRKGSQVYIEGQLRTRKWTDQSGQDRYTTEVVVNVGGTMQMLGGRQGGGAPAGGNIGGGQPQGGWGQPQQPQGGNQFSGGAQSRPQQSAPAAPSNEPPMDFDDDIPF

Sequence of UniProt P03697 (P03697 whole entry): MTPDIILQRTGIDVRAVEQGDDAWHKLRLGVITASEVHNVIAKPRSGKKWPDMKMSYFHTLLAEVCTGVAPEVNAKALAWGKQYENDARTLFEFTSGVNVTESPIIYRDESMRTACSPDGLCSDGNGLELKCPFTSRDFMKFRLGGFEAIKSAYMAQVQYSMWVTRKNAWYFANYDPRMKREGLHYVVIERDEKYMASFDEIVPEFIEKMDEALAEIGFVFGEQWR

Broadly, the Kd is the concentration at which binding is half-saturated. In the case of Redβ (from UniProt P03698), the Kd was 7.9 µM in data set [1] and 10 µM in data set [2].
